Values of other authors, collected in PMC4188523.

Assays:
Asp52 = Asp52 (UniProt position 70, TDGSTDYGILQ); assay: NMR (according to the title of cited reference 36; not described in this article)
Glu35 = Glu35 (UniProt position 53, CAAKFESNFNT); assay: as above

Hen egg white lysozyme (HEWL, lysozyme C) (Gallus gallus)
pKa (Asp52): ∼3.6
pKa (Glu35): ∼6.2
